Experimental data from publication PMC6509359.
Values joined by “and” are separate entries in the source; they are usually repeats but may differ in a detail not shown here. Equal entries are not always repeated.

T1: Human USP25 (1-1055) (human), Q9UHP3
T1 chain: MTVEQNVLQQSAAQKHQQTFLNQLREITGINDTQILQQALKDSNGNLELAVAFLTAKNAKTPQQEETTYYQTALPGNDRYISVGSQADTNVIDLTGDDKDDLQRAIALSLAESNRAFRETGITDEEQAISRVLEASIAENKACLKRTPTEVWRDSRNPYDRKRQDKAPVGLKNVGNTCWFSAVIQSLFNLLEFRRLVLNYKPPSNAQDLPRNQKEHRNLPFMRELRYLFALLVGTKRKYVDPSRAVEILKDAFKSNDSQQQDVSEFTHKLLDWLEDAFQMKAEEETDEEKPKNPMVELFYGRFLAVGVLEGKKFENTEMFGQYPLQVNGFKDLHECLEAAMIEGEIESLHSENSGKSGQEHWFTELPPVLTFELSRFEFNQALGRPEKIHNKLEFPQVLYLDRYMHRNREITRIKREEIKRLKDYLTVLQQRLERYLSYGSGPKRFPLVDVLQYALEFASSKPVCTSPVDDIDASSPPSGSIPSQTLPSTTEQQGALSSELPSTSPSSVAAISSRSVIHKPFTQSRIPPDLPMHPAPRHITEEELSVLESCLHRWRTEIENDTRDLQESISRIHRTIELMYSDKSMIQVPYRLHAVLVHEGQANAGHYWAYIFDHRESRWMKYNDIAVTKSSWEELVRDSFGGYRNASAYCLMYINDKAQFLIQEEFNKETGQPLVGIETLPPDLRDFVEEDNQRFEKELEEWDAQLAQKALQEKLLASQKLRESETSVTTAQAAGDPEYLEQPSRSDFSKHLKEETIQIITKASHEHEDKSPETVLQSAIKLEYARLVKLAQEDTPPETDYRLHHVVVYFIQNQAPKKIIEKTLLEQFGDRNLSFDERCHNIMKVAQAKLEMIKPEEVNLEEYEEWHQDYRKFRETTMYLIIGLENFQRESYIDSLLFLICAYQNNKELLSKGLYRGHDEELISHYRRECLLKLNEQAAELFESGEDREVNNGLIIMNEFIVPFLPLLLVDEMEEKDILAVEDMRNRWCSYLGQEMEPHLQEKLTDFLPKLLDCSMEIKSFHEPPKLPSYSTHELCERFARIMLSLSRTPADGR

T2: endogenous USP25 (human (endogenous in HEK293)), Q9UHP3
T2 chain: T1 chain

B1: Human USP25 (1-1055), Q9UHP3 1-1055 (enzyme)
chain: T1 chain
B2: endogenous USP25, Q9UHP3 1-1055 (enzyme)
chain: T1 chain

Assays:
Conditions in all cases: remark: other sources report otherwise
[1] = target: T1, Human USP25 (1-1055) (human), Q9UHP3; assay: SEC-MALS; five-fold dilution series (1 mg/mL, 0.2 mg/mL, 0.04 mg/mL sample concentration)
[2] = target: T1, Human USP25 (1-1055) (human), Q9UHP3; assay: SEC + native gel or EMSA; recombinant full-length USP25 on HiLoad 16/600 Superdex 200 pg in buffer E immediately before native PAGE, Ponceau staining
[3] = target: T1, Human USP25 (1-1055) (human), Q9UHP3; assay: not stated; oligomeric states of purified orthologs and of full-length proteins, Figures S7A, S7B and S3J
[4] = target: T2, endogenous USP25 (human (endogenous in …)); assay: native gel or EMSA; native PAGE of lysate of untreated HEK293 cells, immunoblotting for the endogenous protein; recombinant USP25 tetramer and dimer fractions as size standard

| Binder | stoichiometry N [1] | stoichiometry N [2] | stoichiometry N [3] | stoichiometry N [4] |
| --- | --- | --- | --- | --- |
| B1 | 4 and 2 | 4 and 2 | 2 and 4 | – |
| B2 | – | – | – | 2 and 4 |
